Test results as given in patent publication US8394607B2, “Anti-CD22 antibodies and immunoconjugates and methods of use” (Genentech, Inc., priority 2006, dated 2013).

Assays:
[1] = target: T1, human CD22-beta-ECD-His tagged soluble antigen (Homo sapiens, UniProt P20273, A486R/Y639H); experiment: BIACORE surface plasmon resonance binding to soluble CD22 ECD; conditions: BIACORE 3000, 25° C., antibody coupled to chip, soluble CD22 ECD injected; one-to-one Langmuir model
T1 sequence (P20273 22-681 A486R/Y639H): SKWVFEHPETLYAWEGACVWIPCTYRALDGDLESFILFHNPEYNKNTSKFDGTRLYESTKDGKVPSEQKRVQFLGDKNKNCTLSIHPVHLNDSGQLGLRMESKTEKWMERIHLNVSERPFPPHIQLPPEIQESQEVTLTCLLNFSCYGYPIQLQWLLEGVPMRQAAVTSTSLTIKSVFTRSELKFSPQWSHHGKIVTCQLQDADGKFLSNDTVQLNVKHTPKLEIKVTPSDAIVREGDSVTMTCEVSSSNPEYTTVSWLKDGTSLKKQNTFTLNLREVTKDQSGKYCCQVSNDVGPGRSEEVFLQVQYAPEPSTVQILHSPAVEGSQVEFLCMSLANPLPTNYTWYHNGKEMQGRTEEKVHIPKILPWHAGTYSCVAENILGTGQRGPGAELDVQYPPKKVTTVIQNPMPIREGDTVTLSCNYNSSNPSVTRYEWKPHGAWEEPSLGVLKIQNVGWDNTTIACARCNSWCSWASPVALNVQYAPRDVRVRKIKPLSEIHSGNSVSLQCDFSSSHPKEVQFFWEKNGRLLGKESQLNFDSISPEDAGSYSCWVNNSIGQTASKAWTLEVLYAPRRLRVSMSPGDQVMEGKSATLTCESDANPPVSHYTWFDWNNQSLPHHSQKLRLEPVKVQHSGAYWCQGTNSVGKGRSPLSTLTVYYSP
Protocol: The binding affinity of murine and humanized 10F4 antibody for soluble CD22 extracellular domain (ECD) was determined by surface plasmon resonance measurement using a BIACORE® 3000 system (Biacore, Inc., Piscataway, N.J.). Briefly, carboxymethylated dextran biosensor chips (CMS, Biacore Inc.) were activated with N-ethyl-N′-(3-dimethylaminopropyl)-carbodiimide hydrochloride (EDC) and N-hydroxysuccinimide (NHS) according to the supplier's instructions. These activated chips were coated with anti-CD22 IgG1 antibody 10F4 (murine or humanized) by dilution to 5 μg/ml with 10 mM sodium acetate, pH 4.8, before injection at a flow rate of 5 μl/minute to achieve approximately 500 response units (RU) of coupled antibody. Next, 1M ethanolamine was injected to block unreacted groups. […] Association rates (kon) and dissociation rates (koff) were calculated using a simple one-to-one Langmuir binding model (BIAevaluation Software version 3.2). The equilibrium dissociation constant (Kd) was calculated as the ratio koff/kon. Anti-CD22 antibody, RFB4, was used as a control (Chemicon International, Inc., Temecula, Calif., catalog no. CBL147).

[2] = target: T2, human CD22 (CD22beta) lacking domain 1, domain 2, or domains 3 and 4 (Homo sapiens, UniProt P20273); experiment: Epitope mapping by flow cytometry on CHO cells expressing CD22 domain deletion variants; type: binding; conditions: flow cytometry, CHO cells
T2 construct: expressed in transfected cells
T2 sequence (P20273 22-670 isoform P20273-2): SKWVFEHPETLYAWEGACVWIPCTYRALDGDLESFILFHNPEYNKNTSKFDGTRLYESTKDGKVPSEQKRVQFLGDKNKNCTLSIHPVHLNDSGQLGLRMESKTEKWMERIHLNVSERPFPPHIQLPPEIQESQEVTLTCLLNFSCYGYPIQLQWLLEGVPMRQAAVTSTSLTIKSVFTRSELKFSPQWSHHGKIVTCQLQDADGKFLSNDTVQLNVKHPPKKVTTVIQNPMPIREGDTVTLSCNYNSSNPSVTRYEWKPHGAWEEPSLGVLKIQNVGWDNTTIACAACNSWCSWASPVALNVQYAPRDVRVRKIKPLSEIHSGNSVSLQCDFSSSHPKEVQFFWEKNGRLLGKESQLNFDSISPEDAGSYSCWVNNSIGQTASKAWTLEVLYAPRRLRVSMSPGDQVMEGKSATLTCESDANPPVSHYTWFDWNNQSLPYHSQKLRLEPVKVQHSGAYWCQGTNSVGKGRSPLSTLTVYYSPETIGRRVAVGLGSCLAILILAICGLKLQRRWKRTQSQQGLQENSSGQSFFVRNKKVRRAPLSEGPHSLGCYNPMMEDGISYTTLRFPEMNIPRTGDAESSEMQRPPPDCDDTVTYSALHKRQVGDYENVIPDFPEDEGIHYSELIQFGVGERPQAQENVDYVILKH
Protocol: (§1) The epitopes of CD22 to which 10F4.4.1 and 5E8.1.8 antibodies bound were determined according to the following procedures. CD22 sequences lacking various of the seven immunoglobulin-like domains of the major CD22 isoform (CD22beta) were cloned and transformed into cells for stable expression. For example, CD22 variants lacking domain 1 (Δ1), domain 2 (Δ2), or domains 3 and 4 (Δ3,4) were cloned, transformed into CHO cells, and expressed on the cells. Control cells expressed CD22beta. Deletions were performed using Stratagene QuikChange XL™ reagent kit. Deletion of domain 1 was performed by deletion of amino acids 22-138; deletion of domain 2 was performed by deletion of amino acids 139-242; and deleted domains 3 and 4 were available as the minor isoform CD22alpha (deletion of amino acids 241-417). All amino acid numbers refer to the numbering of full length precursor CD22beta by Wilson, G. L. et al. (see FIG. 1 in Wilson, G. L. et al., J. Exp. Med. 173:137-146 (1991)). FIG. 14 is a diagram of the deleted domains. Binding was determined by flow cytometry using an isotype control. Binding of 10F4.4.1 was detected using goat anti-mouse IgG Alexa 488. Binding of 5E8.1.8 was detected using biotinylated goat anti-mouse IgG plus streptavidin PE. […] Neither bound CD22 lacking domain 1 or domain 2, and both bound CD22 comprising domains 1 and 2, but lacking domains 3 and 4.

[3] = test system: human CD22 (CD22beta) lacking domain 1, domain 2, or domains 3 and 4; experiment: as above; type: binding
Protocol: as §1

human CD22 = experiment: ELISA plate assays and FACS cell-based assays for selection of hybridoma antibodies; type: binding
Chain of human CD22 (P20273 20-240 limits assumed): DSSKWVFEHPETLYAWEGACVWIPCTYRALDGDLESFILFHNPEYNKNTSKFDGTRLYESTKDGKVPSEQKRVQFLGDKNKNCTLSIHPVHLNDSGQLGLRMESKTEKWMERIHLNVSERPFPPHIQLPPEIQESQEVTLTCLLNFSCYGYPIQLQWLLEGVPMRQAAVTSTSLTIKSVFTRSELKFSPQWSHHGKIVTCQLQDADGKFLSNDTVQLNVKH
Protocol: Murine monoclonal antibodies capable of specifically binding human CD22 was prepared. BALB/c female mice, age six weeks, were immunized in their foot pads with purified human CD22 his-8 tagged extracellular domain lacking domains 3 and 4 (SEQ ID NO:30 (ECD) plus the sequence […] at the C-terminus) or CD22 his-8 tagged extracellular domain comprising domains 1-7 (SEQ ID NO:28 (ECD) plus the above His sequence tag) in Ribi's adjuvant. Subsequent injections were performed in the same manner at one and three weeks after the initial immunizations. […]
ELISA-based assays: Anti-CD22 antibody screening by ELISA is performed as follows, with all incubations done at room temperature. […] Data is obtained by reading the plates in an automated ELISA plate reader at an absorbance of 490 nm.
CHO cells expressing human CD22 on their surface were incubated with anti-CD22 hybridoma supernatant in 100 μl FACS buffer (0.1% BSA, 10 mM sodium azide in PBS, pH 7.4) for 30 minutes at 4° C. followed by one wash with FACS buffer. The amount of anti-CD22 binding was determined by incubating an aliquot of the antibody/cell mixture with a polyclonal FITC conjugated goat or rabbit anti-mouse IgG (Accurate Chem. Co., Westbury, N.Y.) (for murine test antibodies) or goat or rabbit anti-human IgG (for humanized antibodies) for 30 minutes at 4° C. followed by three washes with FACS buffer.

- koff/10^−4 [1]: 2.8
- kon/10^5 [1]: 0.19
- binding to CD22 comprising domains 1 and 2 but lacking domains 3 and 4 [2]: both bound
B1: Mu 10F4.4.1: murine anti-human CD22 monoclonal antibody, hybridoma ATCC PTA-7621 (antibody, V domains shown)
VH: QVQLQQSGPELVKPGASVKISCKASGYEFSRSWMNWVKQRPGQGREWIGRIYPGDGDTNYSGKFKGKATLTADKSSSTAYMQLSSLTSVDSAVYFCARDGSSWDWYFDVWGAGTTVTVSS
VL: DILMTQTPLSLPVSLGDQASISCRSSQSIVHSNGNTFLEWYLQKPGQSPKLLIYKVSNRFSGVPDRFSGSGSGTDFTLKISRVEAEDLGVYYCFQGSQFPYTFGGGTKVEIK
- binding to CD22 lacking domain 1 or domain 2 ([3]; flow cytometry, CHO cells): Neither bound
- epitope (CD22 domains bound) ([3]; within amino acid 22 to amino acid 240 of SEQ ID NO:27): domains 1 and 2 of human CD22
- specific binding to human CD22 (human CD22): bind specifically to human CD22
